Results reported in patent publication US20230174655A1 (published 2023).
Values belong to the binder of their own block, whether it stands above or below them.

What was measured:
[1] = molecular target: T1, FcγRIIa type H extracellular domain with C-terminal His tag (human, UniProt P12318 34-217); test: SPR (Biacore), antibody captured, FcgR analyte
T1 construct: extracellular domain; also called FcRIIaH; FcgRIIaH; not shown: His tag at the C terminus
T1 sequence (looked up): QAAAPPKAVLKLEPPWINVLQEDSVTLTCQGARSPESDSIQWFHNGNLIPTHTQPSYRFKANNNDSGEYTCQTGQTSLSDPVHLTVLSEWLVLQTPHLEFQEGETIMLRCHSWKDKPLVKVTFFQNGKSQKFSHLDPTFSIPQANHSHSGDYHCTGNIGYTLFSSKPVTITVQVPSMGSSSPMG
Description: (§1) In the table, SEQ ID NO refers to the SEQ ID NO of the H chain of the evaluated variant, and alteration refers to the alteration introduced into IL6R-B3 (SEQ ID NO: 40). […] Furthermore, KD(IIaR)/KD(IIb) and KD(IIaH)/KD(IIb) in the table respectively represent the value obtained by dividing the KD value of each variant for FcγRIIaR by the KD value of each variant for FcγRIIb, and the value obtained by dividing the KD value of each variant for FcγRIIaH by the KD value of each variant for FcγRIIb. KD(IIb) of the parent polypeptide/KD(IIb) of the altered polypeptide refers to the value obtained by dividing the KD value of the parent polypeptide for FcγRIIb by the KD value of each variant for FcγRIIb.
(§2) Kinetic analyses for calculating the KD values of each altered antibody for FcγR were performed according to the following method. First, antibodies of interest were captured onto the above-mentioned sensor chips, and an Fcγ receptor diluted with the running buffer was allowed to interact. The Biacore™ Evaluation Software was used to globally fit the measured results to the obtained sensorgram using the 1:1 Langmuir binding model, and the association rate constant ka (L/mol/s) and the dissociation rate constant kd (1/s) were calculated; and from those values the dissociation constants KD (mol/L) were calculated.

[2] = molecular target: T2, FcγRIIb extracellular domain with C-terminal His tag (human, UniProt P31994 43-217); test: SPR (Biacore), Reference Example 2
T2 construct: extracellular domain; also called FcgRIIb; FcγRIIb extracellular region
T2 sequence (looked up): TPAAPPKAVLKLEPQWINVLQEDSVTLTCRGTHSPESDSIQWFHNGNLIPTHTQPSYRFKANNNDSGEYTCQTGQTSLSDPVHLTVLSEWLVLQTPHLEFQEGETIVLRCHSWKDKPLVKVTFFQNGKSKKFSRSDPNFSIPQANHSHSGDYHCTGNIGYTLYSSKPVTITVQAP
Description: (§3) Furthermore, KD(IIaR)/KD(IIb) and KD(IIaH)/KD(IIb) in the table respectively show the value obtained by dividing the KD value of each variant for FcγRIIaR by the KD value of each variant for FcγRIIb, and the value obtained by dividing the KD value of each variant for FcγRIIaH by the KD value of each variant for FcγRIIb. KD(IIb) of the parent polypeptide/KD(IIb) of the altered polypeptide refers to a value obtained by dividing the KD value of the parent polypeptide for FcγRIIb by the KD value of each variant for FcγRIIb.
as §2

[3] = molecular target: T3, FcγRIIa type R extracellular domain with C-terminal His tag (human, UniProt P12318 34-217); test: SPR (Biacore), Reference Example 2
T3 construct: extracellular domain; also called FcγRIIa R; FcγRIIaR
T3 sequence (looked up): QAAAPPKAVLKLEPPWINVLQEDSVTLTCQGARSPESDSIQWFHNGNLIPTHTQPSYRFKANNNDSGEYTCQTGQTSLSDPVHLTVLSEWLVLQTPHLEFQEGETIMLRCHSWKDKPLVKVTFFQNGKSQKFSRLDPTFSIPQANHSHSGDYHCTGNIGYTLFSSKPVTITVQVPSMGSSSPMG
Description: as §3, §2

[4] = molecular target: T4, FcγRIIa type R extracellular domain with C-terminal His tag (human, UniProt P12318 34-217); test: SPR (Biacore), antibody captured on chip, FcγR extracellular domain as analyte
T4 construct: extracellular domain; also called FcgRIIaR; FcγRIIa R; not shown: His tag at the C terminus
T4 sequence (looked up): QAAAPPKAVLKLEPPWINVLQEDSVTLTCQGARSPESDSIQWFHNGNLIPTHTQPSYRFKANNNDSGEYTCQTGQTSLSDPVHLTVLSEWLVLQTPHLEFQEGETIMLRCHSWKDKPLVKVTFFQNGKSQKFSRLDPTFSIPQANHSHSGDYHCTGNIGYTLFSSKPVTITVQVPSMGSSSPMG
Description: as §1, §2

Kd [1]: 10 µM
B1: IL6R-BF146/IL6R-L (antibody, human IgG1, kappa)
heavy: QVQLQESGPGLVKPSETLSLTCAVSGHSISHDHAWSWVRQPPGEGLEWIGFISYSGITNYNPSLQGRVTISRDNSKNTLYLQMNSLRAEDTAVYYCARSLARTTAMDYWGEGTLVTVSSASTKGPSVFPLAPSSKSTSGGTAALGCLVKDYFPEPVTVSWNSGALTSGVHTFPAVLQSSGLYSLSSVVTVPSSSLGTQTYICNVNHKPSNTKVDKKVEPKSCDKTHTCPPCPAPEYLGDDSVFLFPPKPKDTLMISRTPEVTCVVVDVSHEDPEVKFNWYVDGVEVHNAKTKPREEQYNSTYRVVSVLTVLHQDWLNGKEYKCKVSNAALPAPIEKTISKAKGQPREPQVYTLPPSRDELTKNQVSLTCLVKGFYPSDIAVEWESNGQPENNYKTTPPVLDSDGSFFLYSKLTVDKSRWQQGNVFSCSVMHEALHNHYTQESLSLSP
light: not shown
notes: alteration printed: L234Y/G237D/P238D/K326A; copies: 2 + 2

Kd [2]: 20 µM | Kd [3]: 16 µM
B2: IL6R-PD042/IL6R-L (antibody, human IgG1, kappa)
heavy: QVQLQESGPGLVKPSETLSLTCAVSGHSISHDHAWSWVRQPPGEGLEWIGFISYSGITNYNPSLQGRVTISRDNSKNTLYLQMNSLRAEDTAVYYCARSLARTTAMDYWGEGTLVTVSSASTKGPSVFPLAPSSKSTSGGTAALGCLVKDYFPEPVTVSWNSGALTSGVHTFPAVLQSSGLYSLSSVVTVPSSSLGTQTYICNVNHKPSNTKVDKKVEPKSCDKTHTCPPCPAPEWLGGDSVFLFPPKPKDTLYISRTPEVTCVVVDVSHEDPEVKFNWYVDGVEVHNAKTKPREEQYNSTYRVVSVLTVLHQDWLNGKEYKCKVSNKALPAPIEKTISKAKGQPREPQVYTLPPSRDELTKNQVSLTCLVKGFYPSDIAVEWESNGQPENNYKTTPPVLDSDGSFFLYSKLTVDKSRWQQGNVFSCSVMHEALHYHYTQKSLSLSP
light: not shown
notes: H chain: IL6R-F11 with P238D/L234W (EU numbering); also called P238D/L234W; copies: 2 + 2

Kd [4]: 16 µM
B3: IL6R-BP142/IL6R-L (antibody, human IgG1, kappa)
heavy: QVQLQESGPGLVKPSETLSLTCAVSGHSISHDHAWSWVRQPPGEGLEWIGFISYSGITNYNPSLQGRVTISRDNSKNTLYLQMNSLRAEDTAVYYCARSLARTTAMDYWGEGTLVTVSSASTKGPSVFPLAPSSKSTSGGTAALGCLVKDYFPEPVTVSWNSGALTSGVHTFPAVLQSSGLYSLSSVVTVPSSSLGTQTYICNVNHKPSNTKVDKKVEPKSCDKTHTCPPCPAPELLGGDSVFLFPPKPKDTLMISRTPEVTCVVVDVSHEDPEVKFNWYVDGVEVHNAKTKPREEQYNSTYRVVSVLTVLHQDWLNGKEYKCKVSNNALPAPIEKTISKAKGQPREPQVYTLPPSRDELTKNQVSLTCLVKGFYPSDIAVEWESNGQPENNYKTTPPVLDSDGSFFLYSKLTVDKSRWQQGNVFSCSVMHEALHNHYTQESLSLSP
light: not shown
notes: IgG1; P238D/K326N (EU) introduced into IL6R-B3
